B1: Tax1-binding protein 3 (Mus musculus), Q9DBG9 (parent)
chain: MSYTPGQPVTAVVQRVEIHKLRQGENLILGFSIGGGIDQDPSQNPFSEDKTDKGIYVTRVSEGGPAEIAGLQIGDKIMQVNGWDMTMVTHDQARKRLTKRSEEVVRLLVTRQSLQKAVQQSMLS

Here are results for two variants from IntAct's records for PubMed 18835279.

The variants in one assay derive from B1. Particulars: with ctnb1_human CTNNB1, P35222.
Sequence of ctnb1_human CTNNB1, P35222 (P35222 whole entry): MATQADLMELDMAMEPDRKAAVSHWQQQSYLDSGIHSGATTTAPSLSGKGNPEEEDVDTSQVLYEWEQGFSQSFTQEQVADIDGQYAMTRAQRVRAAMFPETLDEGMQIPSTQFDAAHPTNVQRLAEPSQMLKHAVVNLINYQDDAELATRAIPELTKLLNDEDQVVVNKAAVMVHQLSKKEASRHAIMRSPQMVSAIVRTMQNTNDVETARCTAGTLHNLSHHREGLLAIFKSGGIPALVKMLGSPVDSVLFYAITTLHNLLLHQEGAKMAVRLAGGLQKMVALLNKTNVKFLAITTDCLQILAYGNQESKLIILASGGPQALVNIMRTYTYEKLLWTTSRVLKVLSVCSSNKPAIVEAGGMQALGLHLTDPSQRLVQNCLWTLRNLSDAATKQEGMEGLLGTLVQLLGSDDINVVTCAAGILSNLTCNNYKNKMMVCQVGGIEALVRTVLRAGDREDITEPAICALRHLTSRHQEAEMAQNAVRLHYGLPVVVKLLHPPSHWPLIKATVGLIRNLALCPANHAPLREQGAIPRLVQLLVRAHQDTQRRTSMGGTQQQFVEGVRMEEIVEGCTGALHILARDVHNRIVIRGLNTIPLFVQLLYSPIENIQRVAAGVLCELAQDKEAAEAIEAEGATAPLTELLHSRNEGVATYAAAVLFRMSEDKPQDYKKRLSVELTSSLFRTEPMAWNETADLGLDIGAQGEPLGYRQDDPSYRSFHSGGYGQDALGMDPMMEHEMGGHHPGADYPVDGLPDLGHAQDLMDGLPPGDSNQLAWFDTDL
Take MSYTPGQPVTAVVQRVEIHKLRQGENLILGFSIGGGIDQDPSQNSFSEDKTDKGIYVTRVSEGGPAEIAGLQIGDKIMQVNGWDMTMVTHDQARKRLTKRSEEVVRLLVTRQSLQKAVQQSMLS: the “effect of a mutation on the interaction” value is recorded as “decreasing interaction”.

Regarding MSYTPGQPVTAVVQRVEIHKLRQGENLILGFSIGGGIDQDPSQNAFSEDKTDKGIYVTRVSEGGPAEIAGLQIGDKIMQVNGWDMTMVTHDQARKRLTKRSEEVVRLLVTRQSLQKAVQQSMLS, the “effect of a mutation on the interaction” value is reported as “decreasing interaction”.

A further assay covers variants of B1. The settings on record: with ctnb1_human CTNNB1, P35222. This is another data set of the same source.
Consider MSYTPGQPVTAVVQRVEIHKLRQGENLILGFSIGGGIDQDPSQNAFSEDKTDKGIYVTRVSEGGPAEIAGLQIGDKIMQVNGWDMTMVTHDQARKRLTKRSEEVVRLLVTRQSLQKAVQQSMLS, for which the “effect of a mutation on the interaction” value is “increasing interaction”.
